According to paper PMC7297996, “Alzheimer’s disease-related dysregulation of mRNA translation causes key pathological features with ageing” (Translational Psychiatry, 2020):

Biological target: the molecule itself
Test: native gel or EMSA; NativePAGE (Invitrogen) of the synthetic Aβ1-42 preparation, detected with antibody 4G8; guanidine hydrochloride (1:1) used to break down oligomers

B1: synthetic rat Aβ1-42 peptide (peptide, UniProt P08592 672-713, looked up)
peptide: DAEFGHDSGFEVRHQKLVFFAEDVGSNKGAIIGLMVGGVVIA
notes: amyloid-beta 1-42, cut product of the amyloid precursor protein (APP), rat; Oligomer preparation: 100 uM stock in 200 mM HEPES pH 8.5, agitated for 30 min at room temperature; also called amyloid-β 1-42; rodent Aβ_(1-42); source: synthetic peptide; bought: Calbiochem
- binding result: binds
